The text below walks through data of article PMC2749330 (The Biochemical journal, 2008).

The target in this assay is recombinant CLEC-2, monomeric, as used in the surface plasmon resonance studies (UniProt Q9P126 55-229). Description: SPR. On the technique in general: Surface plasmon resonance follows binding to a sensor surface in real time, without labels.
recombinant CLEC-2, monomeric, as used in the surface plasmon resonance studies, sequence (Q9P126 55-229): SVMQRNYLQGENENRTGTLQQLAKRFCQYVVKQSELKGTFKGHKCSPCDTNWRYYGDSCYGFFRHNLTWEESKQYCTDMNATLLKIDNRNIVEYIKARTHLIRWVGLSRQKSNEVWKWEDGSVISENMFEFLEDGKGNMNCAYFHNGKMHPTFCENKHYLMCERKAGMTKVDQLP

B1: recombinant podoplanin fused at its C-terminus to the human IgG1 Fc region (Fc fusion, UniProt Q86YL7 23-131, looked up)
chain: ASTGQPEDDTETTGLEGGVAMPGAEDDVVTPGTSEDRYKSGLTTLVATSVNSVTGIRIEDLPTSESTVHAQEQSPSATASNVATSHSTEKVDGDTQTTVEKDGLSTVTL
For B1, the Kd amounted to 24.5 ± 3.7 µM.

As a reminder, the Kd is the concentration at which binding is half-saturated.
